1 substance from patent US20150004162A1 can be followed below.

For orientation: EC50 means the concentration at which the effect is half-maximal. Low values mean higher potency in that assay, high ones lower potency in that assay.

In the assay the target is human DR5 (human) (UniProt O14763). Description: ELISA, half-log dilutions on wells coated with 1 microgram/ml human DR5, anti-mouse polyclonal antibody-HRP.
Sequence of human DR5 (human) (O14763 other isoform, or with tags, fused parts or gaps limits assumed): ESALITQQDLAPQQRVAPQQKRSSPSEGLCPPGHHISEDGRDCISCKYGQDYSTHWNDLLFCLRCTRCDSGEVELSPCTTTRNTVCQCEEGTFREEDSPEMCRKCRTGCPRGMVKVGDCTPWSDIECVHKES

In the case of MAB631 (antibody), the EC50 came to 0.0651 nM.
